# The DeepSol protein solubility set
# Experiment: soluble on expression in E. coli; label from the status in PepcDB or PDB records
row,Sequence,soluble on expression in E. coli
1,MSLTRKEKPAKVGGFFVLSYVLGGRLAPASPVASDSNIRLPGGYINNSQKTTIDAVRAALSAARMGTFDTAAGVQSDDDPAALLLYAWNAEVSGAFLAPLHVCEVVIRNAVSDALEALYGPRWPWSATFERSLPDPKQGYSPRRDLQSARRSAQTTGKVIPELKFVFWQKMFTGRYDTRIWDQNLRRVMPNIDPAKPVAALRNAIYGDLERVRLLRNRIAHHEPMFARALADDYQTILVLVTYRCAVTAAWLDSHQTATAIITAKPEGHHHHHH,not soluble
2,MRTSSGQILTVTKEISLQASPTEIWSELIHINEVDSIEKKSIISSTLGFPRHIRTHLDTARVGGKRTAYYEKGLTFEETITAYEPERLMILDIKTDPDKISAQVMDEHILIGGKHLDILEDTYELQALSNGCSKLKLTSKFYINTPFNWYAGLWGNYLMSDILKNELELIKNRAEAKLEHHHHHH,soluble
3,AGLKLMGAPVKLTVSQGQPVKLNCSVEGMEEPDIQWVKDGAVVQNLDQLYIPVSEQHWIGFLSLKSVERSDAGRYWCQVEDGGETEISQPVWLTVEGVPFFTVEPKDLAVPPNAPFQLSCEAVGPPEPVTIVWWRGTTKIGGPAPSPSVLNVTGVTQSTMFSCEAHNLKGLASSRTATVHLQ,soluble
4,MRIAIIGSGCSGLTAIKNLLDAGLKEIICFEKSDQIGGNWVYTAAPSHSSVSEATHIISSKALSQFSDFPMPDDYPDYPSHQQILAYFQAYTRHFHLDHYIRFNTAVLRAEKIEKERWCLHLDDGTQAEFDYLLVANGHHSVPRHPDWKECFTGKYLHAHEYKTNQGLEGKRILVVGAGNSGCDCAVEASRVAARVDISLRSPQYIIPKFIMGRPTDTFAATFHWLPQSVQDGLQRISLRLQIGRYHDYALPEPDFSPTRAHPTINSALFDKIRHGKVHPRPGIQKVSGQTVYFADNATAQYDVLIAATGYKISFPFFDRDFLDWEEAAHIPLFLRIFHPDHPSLFFVGLIQPQGCIWPLAEIQARLIGQLLTNKIQLPLNWRKLALSEGRNRAQQFIARPRHSIEVHYYPYLKQLQRMIQGQIKLEHHHHHH,soluble
5,MLAKQRFVLDTTAFTDNQLRELLGDGDLNLSVDRMLDLIARSRIKLNISCHMPPITYKEFTDYMTRYDCPEETLIKAETWIVKKTPNRYDTQIPSQIFYEYVHDIRERMNKGLRISETLLWEAGIQSIIMASRDVKKTEIESEVLGKAIKDLRKKYRSALRKGTLDSAPDLDVLLLAKELGAGVVAADDGIRVWAERLGLRFLNATSFPKMLKEYLKYYE,not soluble
6,MGSDKIHHHHHHMIDHLIATDIGGRGSEKLYILYKSKDPDYFSKSLDLLIKSDEVLIVSDFPIPPTMTPETDGPPGALALALGLAELGKKATILTQEIVKEGLRDFYPRITTKFPNIRKFSCLVSIETPGRNFKGEYLSFSGLKISVRPYDDLFLRALELGIPTIGIGDGGNEIGMGNLGLNDERFSVVRVNELIIAGVSNWGAYGLVAGLSMRVGQNLLRDYNEEDVVKSLVDVGLIDGITKKREPTVDGLPLSLHGKILELLIEIVNIKTP,not soluble
7,STKLTGYVWDGCAASGMKLSSVAIMARLADFSNDEGVCWPSIETIARQIGAGMSTVRTAIARLEAEGWLTRKARRQGDGSSPHCAVVDEYHEHATDALYTTMLTGMGARRQPLMWAITTAGYNIEGPCYDKRREVIEMLNGSVPNDELFGIIYTVDEGDDWTDPQVLEKANPNIGVSVYREFLLSQQQRAKNNARLANVFKTKHLNIWASARSAYFNLVSWQSCEDKSLTLEQFEGQPCILAFDLARKLDMNSMARLYTREIDGKTHYYSVAPRFWVPYDTVYSVEKNEDRRTAERFQKWVEMGVLTVTDGAEVDYRYILEEAKAANKISPVSESPIDPFGATGLSHDLADEDLNPVTIIQNYTNMSDPMKELEAAIESGRFHHDGNPIMTWCIGNVVGKTIPGNDDVVKPVKEQAENKIDGAVALIMAVGRAMLYEKEDTLSDHIESYGIRSL,soluble
8,MSNQLFDAYFTAPAMREIFSDRGRLQGMLDFEAALARAEASAGLVPHSAVAAIEAACQAERYDTGALANAIATAGNSAIPLVKALGKVIATGVPEAERYVHLGATSQDAMDTGLVLQLRDALDLIEADLGKLADTLSQQALKHADTPLVGRTWLQHATPVTLGMKLAGVLGALTRHRQRLQELRPRLLVLQFGGASGSLAALGSKAMPVAEALAEQLKLTLPEQPWHTQRDRLVEFASVLGLVAGSLGKFGRDISLLMQTEAGEVFEPSAPGKGGSSTMPHKRNPVGAAVLIGAATRVPGLLSTLFAAMPQEHERSLGLWHAEWETLPDICCLVSGALRQAQVIAEGMEVDAARMRRNLDLTQGLVLAEAVSIVLAQRLGRDRAHHLLEQCCQRAVAEQRHLRAVLGDEPQVSAELSGEELDRLLDPAHYLGQARVWVARAVSEHQRFTA,soluble
9,MDVKPDRVIDARGSYCPGPLMELIKAYKQAKVGEVISVYSTDAGTKKDAPAWIQKSGQELVGVFDRNGYYEIVMKKVK,soluble
10,GTGTRFGTDLAKEAKKVHQTTRTVPAKRGTIYDRNGVPIAEDATSYNVYAVIDENYKSATGKILYVEKTQFNKVAEVFHKYLDMEESYVREQLSQPNLKQVSFGAKGNGITYANMMSIKKELEAAEVKGIDFTTSPNRSYPNGQFASSFIGLAQLHENEDGSKSLLGTSGMESSLNSILAGTDGIITYEKDRLGNIVPGTEQVSQRTMDGKDVYTTISSPLQSFMETQMDAFQEKVKGKYMTATLVSAKTGEILATTQRPTFDADTKEGITEDFVWRDILYQSNYEPGSTMKVMMLAAAIDNNTFPGGEVFNSSELKIADATIRDWDVNEGLTGGRMMTFSQGFAHSSNVGMTLLEQKMGDATWLDYLNRFKFGVPTRFGLTDEYAGQLPADNIVNIAQSSFGQGISVTQTQMIRAFTAIANDGVMLEPKFISAIYDPNDQTARKSQKEIVGNPVSKDAASLTRTNMVLVGTDPVYGTMYNHSTGKPTVTVPGQNVALKSGTAQIADEKNGGYLVGLTDYIFSAVSMSPAENPDFILYVTVQQPEHYSGIQLGEFANPILERASAMKDSLNLQTTAKALEQVSQQSPYPMPSVKDISPGDLAEELRRNLVQPIVVGTGTKIKNSSAEEGKNLAPNQQVLILSDKAEEVPDMYGWTKETAETLAKWLNIELEFQGSGSTVQKQDVRANTAIKDIKKITLTLGD,soluble
11,MGSDKIHHHHHHMKTDFTIREAQQTDTIALKELFQNTVLAVNSKDYSQAEVEDWASCGDDLSNIEEMIKTHYFIVAVNQQSQIVGFSSITSQGYLHSMFVHKDFQGKGIATMLLEEIERYAITAGIMRITSEVSLTARPFFEKKGYIVKEEQKRKANQLSLTNFWMAREMAKIKPYNGRIPACGVFCGGCPIYTREKRACRGAELNHSRCEKCKTFHLCCFGKKITHCFQCSNFPCTRFKGFAKRWQKHGQDFIENQKLLSEIGEVAFLEYYNKKVTD,not soluble
12,MAHHHHHHMLPGDVVEVLVTNSHGTQDADDVERLCKALHLDPCAWCELHRSPFVPEDNFPPWLPLQKPLTLGQLLSAYVDISSSSYLLHQSFFESLFRIYSDSKPSSASSTSTTPSPDPEKVRLLEACASSETGPQLLRLLSKSSTPLCYPSLVDVLEVFSFVNIPLDRLLEVSGPLQTRRYSLANWIPATLPLSPLQLCMREVCARRSANLPAATPVGADAQRVADMLNRAAQDASRDHGNFFFGHTSHPLCCAARSMTRSAAGAGQRGMYVSFSLFGNSLFARQLQAGCTALCNPAQAKSLCSPLFLIGCGTGIAPLIAAVTQLMLRRACTAAGSAPFPCWVFYGARTKAELLYDEVLREALRTGAIAKYEYALSREEDNEKQGRYVTDLVKQNRLMVTDSLRNEGQLFVCGPAKALVSVRQLVKCDLLAEPDDDDSVQEQRLLVLEDRGRLNFDIWSTGNIFE,not soluble
13,MYSIKMRSSNQDVHISGAETICEFDKIEQTVQRFYNKGFFHENGQPDFLNIKIQKIMEPIQQIKALQIIEDDKANLQHLTQECGVTEQALNQGMTYIKNETVYTGAIILSAISGKRLDSFGQRGIRATHFSFEDINNKGDLNERVTDALAIASCINAHPYVKGELCVSDDLTYTTGYFAAAKIGYHRLFDIKPVNTRYGGRIIFVDDCIDLNHYISFLESTPKQVVYETV,not soluble
14,MKLSEIYNFLDQLSPFNIQESWDNSGILLGDRDSEISTVYLSLDIDENIIKEASENSLIITHHPLIFKGLKDLYDKTYPRAFIKEMIYKNISLISMHTNYDLSHLNTYFTEEILGFKISFKDKFLIYVENSMSFEALCDWVKKKLNLQILRVSDCGKKDIKRIAICTGSGGDLISKVDADCFLSGDFKYHQALEALSNQISLIDLGHFESERYFSQCLAKDLKNLPLQVIITVSKNPFQYFLEHHHHHH,soluble
15,MGSDKIHHHHHHMETWRFIDSGDRDPAYNMALDEALLNWHSEGLIPPTIRFYGWNPPTLSIGYFQKVQKEINMEMVEKHQLGFVRRPTGGRGVLHDKELTYSVIVTEEHPDMPASVTEAYRIISQGILEGFRDLGLDAYFAVPKTEEEKNALKNPRSAVCFDAPSWYELVVEGRKVAGSAQTRQKGVILQHGSIVLDIDEDKLFDLFNYPSERVRERMQRNFKNKAVPINELRDVPLSMEEVKKAFKDGFEKGLSIKLEPYTLTDAEEAEVKQIAKERYETDEWNFRK,not soluble
16,MTKRLFLPEWAPQEAVQLTWPHDRTDWAYMLDEVETCFVRIATAILRHERLIVVCPDRKRVFGLLPPELHHRLYCFELPSNDTWARDHGGISLLADGRPMIADFAFNGWGMKFAAHHDNLITRRLHALGLFAEGVTLDNRLAFVLEGGALETDGEGTLLTTDSCLFEPNRNAGLSRTAIIDTLKESLGVSRVLSLRHGALAGDDTDGHIDTLARFVDTRTIVYVRSEDPSDEHYSDLTAMEQELKELRRPDGQPYRLVPLPMAEALYDGADRLPATYANFLIINGAVLVPTYDSHLDAVALSVMQGLFPDREVIGIDCRPLVKQHGSLHCVTMQYPQGFIRLEHHHHHH,soluble
17,MSAVFGAKYTLRFGHVLAPGEPYHQAFLKWAKAVEEKTNGDVRIEVFPSSQLGVEEDIIEQIRMGAPVGWNTDSARLGMYVKDIGVMNLAYFIDFMGAKTPEEAIEVLKKIKQSPTMQKWLKELEQRFGIKVLSFYWVQGYRHFVTNKPIRKPEDLNGLRIRTPGAPAWQESIRSLGAIPVAVNFGEIYTAVQTRAVDGAELTYANVYNGGLYEVLKYMSETGHFLLINFEIVSADWFNSLPKEYQKIIEEEMDKAGIEVSLKIMKELEEEYKQKCIEKGMAVIPASEIDKEAFMEKAKQAYKNLGLENALNQLIKEVKGEHHHHHH,soluble
18,MGSDKIHHHHHHMKAGLRIGLVGPLPPPSGGMANQTLQLAGLLREEHVEVELIQVNRPYRPGWIGRFKGIRAGFRLLSYVSQLWLSAGRVQLFHVMANSGWSWHLFAAPAIWIARLRGKPVIINYRGGEADSFFDKAFSWVKPSLSRANAIIVPSGFLEGVFGKRGFSASIVPNIIDLSRFGAGMRSDTSTVEAGPDSPHIIVTRNLEPIYDNETALRAFHIVRRSFPAAKLTLAGSGPERHTLEQLAFALGIGGAVTFTGRVDNEGMAAIYRSASVMLNPSLADNMPISILEALASGVPVVSTNVGGVPYLVEHEKNALLVPARDPQAMANAVLRLLNDAARTRRLIEAGMECVQRYTWPNVRVPLFRVYEQVLAAPDRSC,not soluble
